In data set [1] the target is T1, native plasminogen glycoform I (purified in-house from human plasma), P00747.
T1 chain: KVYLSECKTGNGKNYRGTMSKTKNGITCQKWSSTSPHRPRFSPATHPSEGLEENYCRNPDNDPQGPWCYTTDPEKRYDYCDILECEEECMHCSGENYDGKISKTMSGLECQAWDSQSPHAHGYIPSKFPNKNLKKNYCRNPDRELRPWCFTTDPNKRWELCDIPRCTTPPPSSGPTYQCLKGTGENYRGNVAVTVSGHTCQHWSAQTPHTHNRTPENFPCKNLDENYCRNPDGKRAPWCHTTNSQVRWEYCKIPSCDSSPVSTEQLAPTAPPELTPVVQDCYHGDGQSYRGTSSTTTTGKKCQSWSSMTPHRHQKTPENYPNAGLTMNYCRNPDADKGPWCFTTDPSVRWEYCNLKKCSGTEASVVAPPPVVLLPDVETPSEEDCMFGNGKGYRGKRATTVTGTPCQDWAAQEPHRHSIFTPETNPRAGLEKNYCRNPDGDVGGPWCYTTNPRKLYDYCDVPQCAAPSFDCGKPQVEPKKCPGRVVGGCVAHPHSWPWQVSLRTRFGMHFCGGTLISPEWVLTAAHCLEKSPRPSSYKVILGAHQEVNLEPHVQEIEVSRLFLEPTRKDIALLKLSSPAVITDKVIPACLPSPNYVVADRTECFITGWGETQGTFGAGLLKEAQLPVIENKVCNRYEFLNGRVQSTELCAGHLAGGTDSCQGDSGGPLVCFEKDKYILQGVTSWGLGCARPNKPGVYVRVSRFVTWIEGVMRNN

In a further data set the target is T2, recombinant plasminogen.
T2 chain: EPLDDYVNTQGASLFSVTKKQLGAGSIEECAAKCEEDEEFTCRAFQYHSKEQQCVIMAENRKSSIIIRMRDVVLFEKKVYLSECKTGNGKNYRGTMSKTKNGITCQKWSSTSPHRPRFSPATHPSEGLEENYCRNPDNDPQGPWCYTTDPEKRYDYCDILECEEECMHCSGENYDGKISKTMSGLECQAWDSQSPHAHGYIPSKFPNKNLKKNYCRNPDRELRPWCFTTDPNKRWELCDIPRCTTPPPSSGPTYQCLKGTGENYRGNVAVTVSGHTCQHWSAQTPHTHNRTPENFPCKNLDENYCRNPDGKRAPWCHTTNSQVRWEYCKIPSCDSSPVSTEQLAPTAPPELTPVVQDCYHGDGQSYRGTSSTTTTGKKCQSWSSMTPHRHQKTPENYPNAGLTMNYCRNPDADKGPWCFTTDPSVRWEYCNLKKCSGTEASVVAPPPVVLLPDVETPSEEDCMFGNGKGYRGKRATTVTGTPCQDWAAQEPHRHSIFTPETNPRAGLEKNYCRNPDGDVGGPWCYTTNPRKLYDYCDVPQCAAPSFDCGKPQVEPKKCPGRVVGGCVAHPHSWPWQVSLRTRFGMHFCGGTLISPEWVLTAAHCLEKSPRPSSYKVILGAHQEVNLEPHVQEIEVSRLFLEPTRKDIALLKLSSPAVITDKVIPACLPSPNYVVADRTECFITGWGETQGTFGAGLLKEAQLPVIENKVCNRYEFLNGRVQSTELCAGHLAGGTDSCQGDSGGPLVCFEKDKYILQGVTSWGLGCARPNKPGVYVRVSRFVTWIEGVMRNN

Data set [2] addresses T3, native plasminogen glycoform II (purified in-house from human plasma), P00747.
T3 chain: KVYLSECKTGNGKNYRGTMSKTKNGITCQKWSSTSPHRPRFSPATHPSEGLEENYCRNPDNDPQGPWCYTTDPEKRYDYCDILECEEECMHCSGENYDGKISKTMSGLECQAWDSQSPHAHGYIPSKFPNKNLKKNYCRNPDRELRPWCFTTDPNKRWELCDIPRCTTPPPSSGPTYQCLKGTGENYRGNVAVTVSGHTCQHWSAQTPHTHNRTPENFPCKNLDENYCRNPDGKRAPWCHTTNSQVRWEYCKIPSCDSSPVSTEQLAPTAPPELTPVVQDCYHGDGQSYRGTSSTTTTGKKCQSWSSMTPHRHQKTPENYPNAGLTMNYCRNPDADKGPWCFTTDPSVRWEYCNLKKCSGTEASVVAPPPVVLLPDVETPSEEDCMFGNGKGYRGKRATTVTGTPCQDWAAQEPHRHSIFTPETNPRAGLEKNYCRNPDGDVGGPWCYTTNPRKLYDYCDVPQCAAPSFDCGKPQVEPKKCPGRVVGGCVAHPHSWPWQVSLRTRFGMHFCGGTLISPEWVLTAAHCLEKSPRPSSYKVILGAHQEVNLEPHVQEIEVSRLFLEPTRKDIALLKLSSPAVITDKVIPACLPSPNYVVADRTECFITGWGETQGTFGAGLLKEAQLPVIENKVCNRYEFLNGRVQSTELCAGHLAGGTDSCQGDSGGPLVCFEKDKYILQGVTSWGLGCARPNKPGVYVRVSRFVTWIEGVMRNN

B1: tissue-type plasminogen activator (protein)
chain: SYQVICRDEKTQMIYQQHQSWLRPVLRSNRVEYCWCNSGRAQCHSVPVKSCSEPRCFNGGTCQQALYFSDFVCQCPEGFAGKCCEIDTRATCYEDQGISYRGTWSTAESGAECTNWNSSALAQKPYSGRRPDAIRLGLGNHNYCRNPDRDSKPWCYVFKAGKYSSEFCSTPACSEGNSDCYFGNGSAYRGTHSLTESGASCLPWNSMILIGKVYTAQNPSAQALGLGKHNYCRNPDGDAKPWCHVLKNRRLTWEYCDVPSCSTCGLRQYSQPQFRIKGGLFADIASHPWQAAIFAKHRRSPGERFLCGGILISSCWILSAAHCFQERFPPHHLTVILGRTYRVVPGEEEQKFEVEKYIVHKEFDDDTYDNDIALLQLKSDSSRCAQESSVVRTVCLPPADLQLPDWTECELSGYGKHEALSPFYSERLKEAHVRLYPSSRCTSQHLLNRTVTDNMLCAGDTRSGGPQANLHDACQGDSGGPLVCLNDGRMTLVGIISWGLGCGQKDVPGVYTKVTNYLDWIRDNMRP
For the protein B1, the results for the Km (nM) of Plg activation by tPA (in data set [1]; in the data set with recombinant plasminogen; in data set [2]) were 163 nM, 139 nM and 146 nM, respectively. Besides, the Vmax (nM/s) of Plg activation by tPA in data set [1] amounted to 3.06 nM/s; in the data set with recombinant plasminogen, 3.47 nM/s; in data set [2], 1.67 nM/s. Further, the “cleavage to plasmin, SDS-PAGE under reducing conditions” value with recombinant plasminogen was “tPA-cleaved recombinant plasmin (rPlm) resulting from the cleavage of rPlg by tPA”.

Source of the values: patent US20220267751.
